Target: T1, human p52 DNA-binding domain (p52 DBD) (human, UniProt Q00653 1-340)
T1 construct: Expressed in E. coli from pET11a, without a poly-His tag; also called p52 RHD; NF-kB2/p52 Rel homology domain
T1 sequence: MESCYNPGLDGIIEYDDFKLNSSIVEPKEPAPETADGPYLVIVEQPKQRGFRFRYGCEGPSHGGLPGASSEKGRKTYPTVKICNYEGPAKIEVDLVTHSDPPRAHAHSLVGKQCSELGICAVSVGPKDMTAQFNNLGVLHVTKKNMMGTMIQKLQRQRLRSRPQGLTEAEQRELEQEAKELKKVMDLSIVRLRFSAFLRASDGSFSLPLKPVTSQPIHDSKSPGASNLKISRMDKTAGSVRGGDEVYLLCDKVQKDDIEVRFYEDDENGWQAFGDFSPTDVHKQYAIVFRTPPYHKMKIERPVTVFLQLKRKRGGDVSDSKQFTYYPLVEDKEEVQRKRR
Assay: co-refolding from 7 M urea (1:1.2 molar ratio), Ni-affinity capture through the His tag of RelB DBD (uncomplexed p52 DBD flows through), size exclusion; both proteins confirmed by western blotting
Protocol: His-RelB DBD and p52 DBD that had been purified as described above were mixed together in 1:1.2 molar ratio (i.e., with excess p52 DBD) and diluted to ~0.4 mg/ml concentration in a denaturing buffer B (7 M urea, 0.5 M NaCl, 20 mM Tris pH 7.5, 5 mM DTT, 10% glycerol). The denatured protein mixture (100 ml total volume that contained 40 mg total protein) was refolded by slowly removing urea by dialysis. The sample was subjected to dialysis against 2 L buffer C (buffer C was the same as buffer B except it lacked urea) for 6 hours. The dialysis step was repeated two more times. After dialysis, the refolded heterodimer was loaded onto the Ni-affinity column. Excess, uncomplexed p52 DBD flows through the column because it has no poly-His tag to bind Ni-affinity matrix. The heterodimer was eluted with imidazole. The eluate was concentrated and further purified using size exclusion chromatography (Superdex 200, Pharmacia). Fractions containing the heterodimer were pooled and concentrated. The presence of both proteins was confirmed by standard western blotting.

B1: poly histidine tagged murine RelB DNA-binding domain (His-RelB DBD) (other)
chain: MPSRRAARESAPELGALGSSDLSSLSLTVSRTTDELEIIDEYIKENGFGLVGTQLSEMPRLVPRGPASLSSVTLGPAAPPPPATPSWSCTLGRLVSPGPCPRPYLVITEQPKQRGMRFRYECEGRSAGSILGESSTEASKTQPAIELRDCGGLREVEVTACLVWKDWPHRVHPHSLVGKDCTDGVCRVRLRPHVSPRHSFNNLGIQCVRKKEIEAAIERKIQLGIDPYNAGSLKNHQEVDMNVVRICFQASYRDQQGHLHRMDPILSEPVYDKKSTNTSELRICRINKESGPCTGGEELYLLCDKVQKEDISVVFSTASWEGRADFSQADVHRQIAIVFKTPPYEDLEISEPVTVNVFLQRLTDGVCSEPLPFTYLPRDHDSYGVDKKRKRGLPDVLGEL
notes: Expressed in E. coli from pET15b as a poly histidine fusion protein; also called RelB RHD; RelB Rel homology domain; not shown: poly-histidine tag from vector pET15b (Novagen)
binding result: binds

Source: patent publication US8227193 (University of California, dated 2012)
